Results reported in patent publication EP4775595A1 (Beijing Tuo Jie Biopharmaceutical Co. Ltd., dated 2026).
Like-named read-outs stand apart in the source and are kept apart here.

Legend:
[1] = target: human IGF-1R on human non-small cell lung cancer cells (A549) (human, UniProt P08069 31-1367); assay: cell-based or functional assay
[2] = target: mouse IGF-1R on mouse myoblasts (C2C12) (mouse, UniProt Q60751 31-1373); assay: cell-based or functional assay
[3] = target: T1, hIGF-1R-ECD-avi-his (human IGF-1R extracellular region) (human, UniProt P08069 31-935); assay: SPR (Biacore T200), antigen captured by anti-His antibody on CM5 chip, antibody as analyte
T1 construct: It was captured on the chip through its His tag

[4] = target: T2, mouse IGF-1R (Acro, Cat. IGR-M5223) (mouse, UniProt Q60751 31-936, limits assumed); assay: as above
T2 construct: Bought reagent; also called murine IGF-1R

[5] = target: T1, hIGF-1R-ECD-avi-his (human IGF-1R …); assay: as above; remark: listed apart in the source

T2 sequence (Q60751 31-936 limits assumed): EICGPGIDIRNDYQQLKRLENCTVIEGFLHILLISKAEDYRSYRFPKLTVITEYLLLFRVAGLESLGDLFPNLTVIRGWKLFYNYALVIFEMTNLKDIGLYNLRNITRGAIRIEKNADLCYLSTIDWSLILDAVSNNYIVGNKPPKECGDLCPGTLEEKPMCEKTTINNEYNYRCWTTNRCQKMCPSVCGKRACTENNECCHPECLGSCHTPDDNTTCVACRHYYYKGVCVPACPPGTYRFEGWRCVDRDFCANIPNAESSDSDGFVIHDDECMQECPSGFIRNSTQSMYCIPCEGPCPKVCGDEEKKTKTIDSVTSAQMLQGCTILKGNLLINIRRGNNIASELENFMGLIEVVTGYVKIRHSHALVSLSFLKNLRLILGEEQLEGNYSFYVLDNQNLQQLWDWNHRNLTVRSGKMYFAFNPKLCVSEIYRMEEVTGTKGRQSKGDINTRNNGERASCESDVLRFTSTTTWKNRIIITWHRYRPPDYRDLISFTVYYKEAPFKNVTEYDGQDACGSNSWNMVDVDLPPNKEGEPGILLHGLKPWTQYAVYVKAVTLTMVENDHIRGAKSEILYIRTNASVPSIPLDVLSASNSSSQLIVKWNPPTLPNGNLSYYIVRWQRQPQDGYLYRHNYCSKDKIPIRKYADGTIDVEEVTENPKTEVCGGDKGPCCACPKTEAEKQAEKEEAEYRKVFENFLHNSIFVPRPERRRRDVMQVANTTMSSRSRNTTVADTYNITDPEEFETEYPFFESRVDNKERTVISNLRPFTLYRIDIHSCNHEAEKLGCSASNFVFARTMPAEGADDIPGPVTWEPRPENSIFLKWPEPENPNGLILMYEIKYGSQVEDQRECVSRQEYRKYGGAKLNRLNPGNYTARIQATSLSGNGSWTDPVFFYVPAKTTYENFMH
T1 sequence (P08069 other isoform, or with tags, fused parts or gaps limits assumed): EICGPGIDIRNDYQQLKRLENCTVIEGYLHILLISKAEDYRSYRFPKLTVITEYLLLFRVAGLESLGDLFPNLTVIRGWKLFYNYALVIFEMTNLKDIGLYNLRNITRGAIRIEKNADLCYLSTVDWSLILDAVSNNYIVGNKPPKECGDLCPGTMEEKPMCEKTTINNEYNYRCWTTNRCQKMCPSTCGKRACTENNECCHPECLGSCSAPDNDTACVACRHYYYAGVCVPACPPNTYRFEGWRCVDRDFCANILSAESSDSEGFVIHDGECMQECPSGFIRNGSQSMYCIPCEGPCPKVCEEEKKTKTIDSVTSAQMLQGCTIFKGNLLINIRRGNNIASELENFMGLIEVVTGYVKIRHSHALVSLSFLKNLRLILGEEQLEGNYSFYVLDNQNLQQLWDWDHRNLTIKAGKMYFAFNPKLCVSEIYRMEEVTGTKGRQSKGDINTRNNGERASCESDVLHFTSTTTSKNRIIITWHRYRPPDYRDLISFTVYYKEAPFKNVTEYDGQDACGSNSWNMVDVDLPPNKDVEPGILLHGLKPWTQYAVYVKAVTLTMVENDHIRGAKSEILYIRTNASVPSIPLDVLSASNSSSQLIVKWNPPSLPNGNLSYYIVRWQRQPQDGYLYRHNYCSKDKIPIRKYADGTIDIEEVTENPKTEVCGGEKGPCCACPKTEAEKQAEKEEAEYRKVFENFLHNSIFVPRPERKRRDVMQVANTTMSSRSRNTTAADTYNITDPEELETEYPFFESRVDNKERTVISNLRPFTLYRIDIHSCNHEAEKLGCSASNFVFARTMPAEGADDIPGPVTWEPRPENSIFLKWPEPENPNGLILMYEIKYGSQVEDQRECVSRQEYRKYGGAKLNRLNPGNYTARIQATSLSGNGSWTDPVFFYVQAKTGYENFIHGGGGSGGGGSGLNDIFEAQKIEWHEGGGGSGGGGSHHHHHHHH
Sequence of mouse IGF-1R on mouse myoblasts (C2C12) (Q60751 31-1373): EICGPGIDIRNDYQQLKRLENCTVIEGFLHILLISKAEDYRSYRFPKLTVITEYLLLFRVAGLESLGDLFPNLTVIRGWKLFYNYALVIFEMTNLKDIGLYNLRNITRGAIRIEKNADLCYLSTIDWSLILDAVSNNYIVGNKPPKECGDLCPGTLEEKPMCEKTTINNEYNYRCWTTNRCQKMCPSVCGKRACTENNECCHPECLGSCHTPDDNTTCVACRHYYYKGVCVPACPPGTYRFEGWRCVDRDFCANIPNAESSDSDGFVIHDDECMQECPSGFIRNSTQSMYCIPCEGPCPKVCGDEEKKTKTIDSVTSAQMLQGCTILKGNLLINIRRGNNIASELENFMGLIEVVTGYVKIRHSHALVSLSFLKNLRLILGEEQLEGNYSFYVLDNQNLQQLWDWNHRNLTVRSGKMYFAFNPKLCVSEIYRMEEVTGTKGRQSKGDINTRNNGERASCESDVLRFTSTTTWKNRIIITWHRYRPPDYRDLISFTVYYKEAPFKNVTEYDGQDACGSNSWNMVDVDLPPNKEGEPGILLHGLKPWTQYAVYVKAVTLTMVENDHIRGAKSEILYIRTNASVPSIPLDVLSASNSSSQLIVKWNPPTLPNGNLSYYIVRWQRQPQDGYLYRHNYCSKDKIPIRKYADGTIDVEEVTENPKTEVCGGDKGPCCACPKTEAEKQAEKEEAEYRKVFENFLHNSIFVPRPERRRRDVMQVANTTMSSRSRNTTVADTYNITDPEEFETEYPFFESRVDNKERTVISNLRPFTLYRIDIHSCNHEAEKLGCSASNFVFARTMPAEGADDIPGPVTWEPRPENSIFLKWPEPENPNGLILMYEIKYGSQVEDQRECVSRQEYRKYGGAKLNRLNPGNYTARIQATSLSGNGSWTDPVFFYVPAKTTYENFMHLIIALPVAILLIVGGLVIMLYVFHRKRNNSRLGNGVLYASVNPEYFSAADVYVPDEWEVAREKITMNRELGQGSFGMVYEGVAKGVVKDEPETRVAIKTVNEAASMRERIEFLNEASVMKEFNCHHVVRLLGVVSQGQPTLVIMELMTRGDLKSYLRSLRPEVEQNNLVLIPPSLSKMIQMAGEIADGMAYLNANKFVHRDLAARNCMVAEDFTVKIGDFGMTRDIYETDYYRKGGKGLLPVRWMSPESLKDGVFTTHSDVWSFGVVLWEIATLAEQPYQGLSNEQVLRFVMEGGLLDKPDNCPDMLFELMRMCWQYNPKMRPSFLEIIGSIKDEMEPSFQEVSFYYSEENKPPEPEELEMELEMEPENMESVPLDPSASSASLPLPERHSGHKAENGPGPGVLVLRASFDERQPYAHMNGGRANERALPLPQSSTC
Sequence of human IGF-1R on human non-small cell lung cancer cells (A549) (P08069 31-1367): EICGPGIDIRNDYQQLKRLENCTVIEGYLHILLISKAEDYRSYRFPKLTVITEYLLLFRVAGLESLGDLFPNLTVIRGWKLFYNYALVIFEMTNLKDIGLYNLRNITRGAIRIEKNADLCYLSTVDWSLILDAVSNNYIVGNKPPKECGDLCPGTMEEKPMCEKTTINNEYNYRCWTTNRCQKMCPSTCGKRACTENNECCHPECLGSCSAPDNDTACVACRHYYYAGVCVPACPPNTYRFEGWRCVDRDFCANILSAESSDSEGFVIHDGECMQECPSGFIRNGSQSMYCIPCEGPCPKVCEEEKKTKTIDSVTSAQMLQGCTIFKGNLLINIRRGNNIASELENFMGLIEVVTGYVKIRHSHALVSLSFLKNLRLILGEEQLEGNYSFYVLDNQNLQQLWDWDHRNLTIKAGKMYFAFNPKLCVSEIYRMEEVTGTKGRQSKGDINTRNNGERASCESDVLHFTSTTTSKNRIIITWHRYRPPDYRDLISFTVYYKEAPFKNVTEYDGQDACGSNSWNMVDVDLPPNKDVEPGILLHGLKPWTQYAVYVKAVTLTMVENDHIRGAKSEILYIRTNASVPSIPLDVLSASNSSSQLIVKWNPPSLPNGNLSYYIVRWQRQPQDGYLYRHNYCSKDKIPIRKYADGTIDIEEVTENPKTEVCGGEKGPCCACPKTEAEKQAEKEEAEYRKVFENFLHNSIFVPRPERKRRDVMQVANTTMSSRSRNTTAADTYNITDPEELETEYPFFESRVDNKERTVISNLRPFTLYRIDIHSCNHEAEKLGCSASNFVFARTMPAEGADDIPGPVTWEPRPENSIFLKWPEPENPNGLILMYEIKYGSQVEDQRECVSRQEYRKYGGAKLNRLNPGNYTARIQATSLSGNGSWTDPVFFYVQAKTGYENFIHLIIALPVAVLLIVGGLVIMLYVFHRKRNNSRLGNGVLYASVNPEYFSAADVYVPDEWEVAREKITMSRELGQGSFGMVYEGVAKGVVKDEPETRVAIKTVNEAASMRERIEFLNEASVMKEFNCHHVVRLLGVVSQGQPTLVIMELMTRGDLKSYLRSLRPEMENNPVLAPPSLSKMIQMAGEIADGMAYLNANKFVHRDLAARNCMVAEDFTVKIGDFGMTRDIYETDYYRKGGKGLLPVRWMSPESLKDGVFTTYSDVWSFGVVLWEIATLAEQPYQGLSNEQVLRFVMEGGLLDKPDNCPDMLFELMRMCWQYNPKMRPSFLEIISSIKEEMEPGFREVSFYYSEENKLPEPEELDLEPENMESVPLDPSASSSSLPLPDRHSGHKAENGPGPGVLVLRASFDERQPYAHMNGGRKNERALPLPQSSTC

Binder	Kd [5] [nM]	koff [5] [s⁻¹]	kon [5] [M⁻¹ s⁻¹]	further results
PHP1003 (Suzhou PRO-HEAL, CN113512116) (antibody, V domains shown, Positive control anti-IGF-1R antibody) VH: QVQLQESGPGLVKPSGTLSLTCAVSGGSISSSNWWSWVRQPPGKGLEWIGEIYHSGSTNYNPSLKSRVTISVDKSKNQFSLKLSSVTAADTAVYYCARWTGRTDAFDIWGQGTMVTVSS VL: not shown	–	–	–	IC50 (nM), inhibition of IGF1-induced pAKT signaling in A549 cells [1]: 33.6 nM; IC50 (nM), inhibition of IGF1-induced pAKT signaling in C2C12 cells [2]: 4240 nM; Kd [3]: 0.262 nM; koff [3]: 0.00107 s⁻¹; kon [3]: 4.1e+06 M⁻¹ s⁻¹; Kd [4]: 0.337 nM; koff [4]: 0.00112 s⁻¹; kon [4]: 3.32e+06 M⁻¹ s⁻¹
IG06-hu4 (VHH) VHH: EVQLVESGGGLVQPGGSLRLSCAASRYIVSTRCLGWVRQAPGKEREEVSTIDTAGRPTYADSVKGRFTISRDGAKNFLYLQMNSLRAEDTAVYYCAAASSDNCRYFPSNLGQGTLVTVSS	4	0.00299	748000	–
IG06-hu3 (VHH) VHH: EVQLVESGGGLVQPGGSLRLSCAASRYIVSTRCLGWVRQAPGKEREEVSTIDTAGRPTYADSVKGRFTISRDGAKNFLYLQMNSLRAEDTAVYYCAAASSDNCRYFPSNWGQGTLVTVSS	27.3	0.0231	847000	–
IG06-hu6 (VHH) VHH: EVQLVESGGGLVQPGGSLRLSCAASRYIVSTRCLGWVRQAPGNEREEVSTIDTAGRPTYADSVKGRFTISRDNSKNTLYLQMNSLRAEDTAVYYCAAASSDNCRYFPSNLGQGTLVTVSS	1.55	0.00226	1.46e+06	–
IG05-hu1 (VHH, Humanized IG05; also called IG05-hul) VHH: EVQLVESGGGLVQPGGSLRLSCTASGLTFGTFGMAWFRQAPGKEREGVSAISASSGRTYYADSVKGRFTISRDNSKNTLYLQMNSLRAEDTAVYYCAVRSKNGAGYGFWYEARLYGYWGQGTLVTVSS	0.395	0.00072	1.82e+06	–
IG05 (VHH, Camel single-domain antibody against IGF-1R) VHH: QVQLVESGGGLVQAGGSLRLSCTASGLTFGTFGMAWFRQAPGKEREGVSAISASSGRTYYADSVKGRFTISRDNAKNTLYLQMDALKPEDTAMYYCAVRSKNGAGYGFWYEARLYGYWGQGTQVTVSS	0.346	0.000749	2.17e+06	–
IG05-hu2 (VHH, Humanized IG05) VHH: EVQLVESGGGLVQPGGSLRLSCTASGLTFGTFGMAWFRQAPGKEREGVSAISASSGRTYYADSVKGRFTISRDNAKNTLYLQMNSLRAEDTAVYYCAVRSKNGAGYGFWYEARLYGYWGQGTLVTVSS	0.361	0.000772	2.14e+06	–
IG05-hu5 (VHH, Humanized IG05) VHH: EVQLVESGGGLVQPGGSLRLSCAASGFTFGTFGMAWFRQAPGKEREGVSAISASSGRTYYADSVKGRFTISRDNSKNTLYLQMNSLRAEDTAVYYCAVRSKNGAGYGFWYEARLYGYWGQGTLVTVSS	0.258	0.000474	1.83e+06	–

Continued by falling Kd [5], values first:

Kd [5] [nM]	koff [5] [s⁻¹]	kon [5] [M⁻¹ s⁻¹]	Binder	further results
34.7	0.0277	800000	IG06-hu2 (VHH) VHH: EVQLVESGGGLVQPGGSLRLSCAASRYIVSTRCLGWVRQAPGKEREEVSTIDTAGRPTYADSVKGRFTISRDNSKNFLYLQMNSLRAEDTAVYYCAAASSDNCRYFPSNWGQGTLVTVSS	–
29.3	0.0265	905000	IG06-hu1 (VHH) VHH: EVQLVESGGGLVQPGGSLRLSCAASRYIVSTRCLGWVRQAPGKEREEVSTIDTAGRPTYADSVKGRFTISRDNSKNTLYLQMNSLRAEDTAVYYCAAASSDNCRYFPSNWGQGTLVTVSS	–
2.67	0.0024	899000	IG06-hu5 (VHH) VHH: EVQLVESGGGLVQPGGSLRLSCAASRYIVSTRCLGWVRQAPGKEREEIATIDTAGRPTYADSVKGRFTISRDGAKNFLYLQMNSLRAEDTAVYYCAAASSDNCRYFPSNLGQGTLVTVSS	–
0.889	0.000675	759000	IG06 (VHH, Camel single-domain antibody against IGF-1R) VHH: QVQLVESGGGSVQAGGSLRLSCAASRYIVSTRCLGWVRQAPGNEREEIATIDTAGRPTYADSVKGRFTISKDGAKNFLYLQMNSLKPEDTAMYYCAAASSDNCRYFPSNLGQGTQVTVSS	–
0.507	0.000882	1.74e+06	IG05-hu4 (VHH, Humanized IG05) VHH: EVQLVESGGGLVQPGGSLRLSCAASGLTFGTFGMAWFRQAPGKEREGVSAISASSGRTYYADSVKGRFTISRDNSKNTLYLQMNSLRAEDTAVYYCAVRSKNGAGYGFWYEARLYGYWGQGTLVTVSS	–
0.403	0.000723	1.79e+06	IG05-hu3 (VHH, Humanized IG05) VHH: EVQLVESGGGLVQPGGSLRLSCTASGLTFGTFGMAWFRQAPGKEREGVSAISASSGRTYYADSVKGRFTISRDNSKNTLYLQMDALRAEDTAVYYCAVRSKNGAGYGFWYEARLYGYWGQGTLVTVSS	–
